Here are results for 3 molecules from patent US12668638B2, “Antibodies that bind EGFR and cMET” (Merus B.V., priority 2017, dated 2026).

One experiment has as its system HCC827 tumor cells. As to the kind of experiment: HCC827 xenograft in NSG-hHGFki mice. The class given is in vivo, mouse. The text has this:
The VH of the cMET variable domain of PB19748 comprises the amino acid sequence of MF8230 (see FIG. 8). […] The VH of the EGFR variable domain of PB19748 comprises the amino acid sequence of MF8233 of FIG. 7. […] In the chosen model, HCC827 tumor cells are engrafted into immunodeficient NOD SCID gamma (NSG) human hepatocyte growth factor knock-in (hHGFki) mice, that express human HGF (ligand for cMET) in place of endogenous mouse HGF. […] They have no T or B cells, lack functional NK cells, and are deficient in cytokine signaling, which allows for better tumor engraftment.
Prior to tumor cell engraftment, the cell cycle of HCC827 cells was boosted by culturing the cells overnight in medium supplemented with 20% fetal bovine serum (FBS) at confluency not exceeding 80%. […] The resulting tumors were measured twice each week using calipers. When the mean tumor volume reached approximately 200 mm^3, the mice were randomized into two groups (4-7 mice per group depending on tumor growth and volume) and drug treatment was started.
Tumor volume was measured twice each week using calipers, and mean tumor volume (and SEM) calculated for each group. When tumor sizes reached 1500 mm^3 mice were euthanized. Treatment was stopped after day 48, and tumor volume in surviving mice was measured up to day 62. […]
As before, tumor volume was monitored and mean tumor volume (and SEM) calculated in each group. All treatments were stopped after day 60, and tumor volume in surviving mice was measured up to day 82.
As before, tumor volume was monitored and mean tumor volume (and SEM) calculated in each group. All treatments were stopped after day 93, and tumor volume in surviving mice was measured up to day […].
In a fourth experiment the effect of a later administration of PB19478 was tested.
On day 51 when the mean tumor volume had clearly passed the 500 mm 3 mark the mice were randomized into two groups. […] As before, tumor volume was monitored and mean tumor volume (and SEM) calculated in each group. All treatments were stopped after day 72.

The next experiment concerns tumor cell line H1975. The following applies: H1975 expresses the cMET ligand HGF; cited from earlier work.
A further experiment has as its system cMET and EGFR. As to conditions: cited from earlier work.

Consider `C#Cc1cccc(Nc2ncnc3cc(OCCOC)c(OCCOC)cc23)c1` [erlotinib, reference compound], for which, in the experiment on HCC827 tumor cells (mouse, in vivo), the anti-tumor response result was “able to induce an anti-tumor response”.

As for “JNJ-61186372: bispecific cMETxEGFR antibody produced by controlled Fab-arm exchange (Moores et al 2016)”, the activity in vivo result in the experiment with tumor cell line H1975 is “active in vivo”. Besides, the “affinity imbalance, greater affinity for cMET than EGFR” value in the experiment on cMET and EGFR is reported as “approximately 40 ×”.

B1: LY2875358: humanized monoclonal cMET antibody emibetuzumab (antibody, chains of the INN, looked up, V domains shown)
VH: QVQLVQSGAEVKKPGASVKVSCKASGYTFTDYYMHWVRQAPGQGLEWMGRVNPNRRGTTYNQKFEGRVTMTTDTSTSTAYMELRSLRSDDTAVYYCARANWLDYWGQGTTVTVSS
VL: DIQMTQSPSSLSASVGDRVTITCSVSSSVSSIYLHWYQQKPGKAPKLLIYSTSNLASGVPSRFSGSGSGTDFTLTISSLQPEDFATYYCQVYSGYPLTFGGGTKVEIK
Take B1: the anti-tumor response entry in the experiment on HCC827 tumor cells (antibody 25 mg/kg weekly i.p. plus erlotinib 6 mg/kg daily gavage) was “less effective than PB8532”; with HCC827 tumor cells (antibody 25 mg/kg weekly i.p. plus erlotinib 6 mg/kg daily gavage, listed as LY3875358), “less effective”; in the experiment with HCC827 tumor cells (antibody 25 mg/kg weekly i.p. plus vehicle (without erlotinib)), “less effective than PB8532”; in the experiment on HCC827 tumor cells (antibody 25 mg/kg weekly i.p. plus vehicle (without erlotinib), listed as LY3875358), “less effective”.
